Results from the supplement of paper PMC9112550, “Optimization of the antimicrobial peptide Bac7 by deep mutational scanning” (BMC Biology, 2022).

Test system: Escherichia coli TOP10
Assay: shrunken log2 fold change of peptide-encoding DNA abundance (4.5 h post-induction vs induction); higher = less antimicrobial activity (less host growth inhibition)
Details: time post-induction: 4.5 h; library: site-saturation at positions 5, 18, 19, 20
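Further: peptides expressed intracellularly from a pBAD plasmid library in pooled LB shake-flask culture, induced with 0.3% L-arabinose, DNA abundance read by NGS, three biological replicates, DESeq2 with apeglm shrinkage.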

| Sequence | shrunken log2 fold change |
| --- | --- |
| RRIRGRPPRLPRPRPRPHCIPRP | -0.0261 |
| RRIRMRPPRLPRPRPRPPGNPRP | 0.475 |
| RRIRLRPPRLPRPRPRPWDIPRP | -0.0445 |
| RRIRLRPPRLPRPRPRPLGHPRP | -0.0858 |
| RRIRFRPPRLPRPRPRPSEWPRP | -0.028 |
| RRIRWRPPRLPRPRPRPTSMPRP | -0.0665 |
| RRIRIRPPRLPRPRPRPKSYPRP | -0.605 |
| RRIRPRPPRLPRPRPRPVWTPRP | 0.224 |
| RRIRPRPPRLPRPRPRPTCIPRP | -0.146 |
| RRIRIRPPRLPRPRPRPDELPRP | 0.0623 |
| RRIRARPPRLPRPRPRPDTQPRP | 0.374 |
| RRIRTRPPRLPRPRPRPNYGPRP | -0.363 |
| RRIRFRPPRLPRPRPRPYLTPRP | -0.875 |
| RRIRVRPPRLPRPRPRPRVCPRP | 0.165 |
| RRIRRRPPRLPRPRPRPWLWPRP | 0.0836 |
| RRIRCRPPRLPRPRPRPLWGPRP | -0.26 |
| RRIRRRPPRLPRPRPRPCDFPRP | -0.128 |
| RRIRIRPPRLPRPRPRPQSMPRP | -0.138 |
| RRIRLRPPRLPRPRPRPDYLPRP | -0.114 |
| RRIRWRPPRLPRPRPRPDIRPRP | -0.0808 |
| RRIRARPPRLPRPRPRPADPPRP | 0.611 |
| RRIRYRPPRLPRPRPRPHSHPRP | -0.311 |
| RRIRHRPPRLPRPRPRPESWPRP | -0.00647 |
| RRIRGRPPRLPRPRPRPAVCPRP | 0.938 |
| RRIRSRPPRLPRPRPRPLFNPRP | -0.632 |

| Sequence | shrunken log2 fold change |
| --- | --- |
| RRIRERPPRLPRPRPRPEMFPRP | 0.232 |
| RRIRCRPPRLPRPRPRPNFKPRP | -0.21 |
| RRIRFRPPRLPRPRPRPNHVPRP | -0.276 |
| RRIRRRPPRLPRPRPRPVNRPRP | -0.0157 |
| RRIRGRPPRLPRPRPRPWGKPRP | -0.0896 |
| RRIRLRPPRLPRPRPRPKEIPRP | -0.00121 |
| RRIRQRPPRLPRPRPRPSFTPRP | -1.12 |
| RRIRTRPPRLPRPRPRPIVSPRP | -0.0631 |
| RRIRFRPPRLPRPRPRPGQDPRP | -0.0452 |
| RRIRVRPPRLPRPRPRPMGFPRP | 0.034 |
| RRIRRRPPRLPRPRPRPWFLPRP | -0.19 |
| RRIRLRPPRLPRPRPRPDDQPRP | 0.101 |
| RRIRLRPPRLPRPRPRPGQYPRP | -0.0693 |
| RRIRVRPPRLPRPRPRPKTQPRP | 0.0766 |
| RRIRYRPPRLPRPRPRPMNEPRP | -0.103 |
| RRIRMRPPRLPRPRPRPNDMPRP | -0.204 |
| RRIRCRPPRLPRPRPRPWPIPRP | -0.369 |
| RRIRHRPPRLPRPRPRPMRLPRP | 0.0431 |
| RRIRERPPRLPRPRPRPVCCPRP | -0.163 |
| RRIRKRPPRLPRPRPRPENNPRP | 0.179 |
| RRIRIRPPRLPRPRPRPNDVPRP | -0.0102 |
| RRIRDRPPRLPRPRPRPQLVPRP | 0.0777 |
| RRIRTRPPRLPRPRPRPWARPRP | -0.00874 |
| RRIRKRPPRLPRPRPRPWCDPRP | -0.377 |
| RRIRMRPPRLPRPRPRPGMEPRP | 0.183 |

| Sequence | shrunken log2 fold change |
| --- | --- |
| RRIRKRPPRLPRPRPRPFNDPRP | -0.135 |
| RRIRTRPPRLPRPRPRPRSRPRP | 0.143 |
| RRIRYRPPRLPRPRPRPAIEPRP | 0.0193 |
| RRIRIRPPRLPRPRPRPAVEPRP | 0.193 |
| RRIRERPPRLPRPRPRPSWPPRP | -0.079 |
| RRIRCRPPRLPRPRPRPAEPPRP | 0.368 |
| RRIRVRPPRLPRPRPRPKSRPRP | 0.0366 |
| RRIRNRPPRLPRPRPRPIMYPRP | -0.309 |
| RRIRGRPPRLPRPRPRPYGLPRP | 0.0992 |
| RRIRERPPRLPRPRPRPKKYPRP | -0.518 |
| RRIRKRPPRLPRPRPRPNDMPRP | 0.194 |
| RRIRVRPPRLPRPRPRPRTIPRP | -0.0961 |
| RRIRQRPPRLPRPRPRPDWSPRP | -0.0861 |
| RRIRLRPPRLPRPRPRPTIAPRP | -0.183 |
| RRIRYRPPRLPRPRPRPDGPPRP | 0.123 |
| RRIRARPPRLPRPRPRPPRYPRP | 0.896 |
| RRIRMRPPRLPRPRPRPTDVPRP | 0.141 |
| RRIRSRPPRLPRPRPRPKIFPRP | -0.0746 |
| RRIRVRPPRLPRPRPRPHYHPRP | -0.397 |
| RRIRMRPPRLPRPRPRPDYEPRP | -0.0178 |
| RRIRARPPRLPRPRPRPWYVPRP | -0.0927 |
| RRIRKRPPRLPRPRPRPIVQPRP | 0.000772 |
| RRIRTRPPRLPRPRPRPWRPPRP | 0.00182 |
| RRIRYRPPRLPRPRPRPFNYPRP | 0.0209 |
| RRIRARPPRLPRPRPRPSQHPRP | -0.117 |

| Sequence | shrunken log2 fold change |
| --- | --- |
| RRIRDRPPRLPRPRPRPVFCPRP | 0.0325 |
| RRIRKRPPRLPRPRPRPSHDPRP | -0.203 |
| RRIRCRPPRLPRPRPRPRPVPRP | 0.766 |
| RRIRTRPPRLPRPRPRPFVIPRP | -0.488 |
| RRIRSRPPRLPRPRPRPLHIPRP | -0.0437 |
| RRIRSRPPRLPRPRPRPVRVPRP | 0.743 |
| RRIRNRPPRLPRPRPRPVQEPRP | -0.0428 |
| RRIRNRPPRLPRPRPRPVSLPRP | -0.396 |
| RRIRCRPPRLPRPRPRPRFSPRP | -0.289 |
| RRIRTRPPRLPRPRPRPAFAPRP | 0.282 |
| RRIRGRPPRLPRPRPRPIPDPRP | 0.238 |
| RRIRCRPPRLPRPRPRPPCLPRP | -0.199 |
| RRIRHRPPRLPRPRPRPLEEPRP | 0.136 |
| RRIRQRPPRLPRPRPRPSWAPRP | -0.0374 |
| RRIRTRPPRLPRPRPRPRKRPRP | 0.152 |
| RRIRTRPPRLPRPRPRPGVWPRP | 0.631 |
| RRIRCRPPRLPRPRPRPPAQPRP | 1.18 |
| RRIRFRPPRLPRPRPRPIGNPRP | -0.501 |
| RRIRNRPPRLPRPRPRPSQNPRP | -0.386 |
| RRIRWRPPRLPRPRPRPNMRPRP | 0.0208 |
| RRIRYRPPRLPRPRPRPCFEPRP | -0.614 |
| RRIRERPPRLPRPRPRPDLGPRP | -0.0853 |
| RRIRWRPPRLPRPRPRPFEFPRP | -0.182 |
| RRIRFRPPRLPRPRPRPSIDPRP | -0.433 |
| RRIRFRPPRLPRPRPRPFNEPRP | -0.322 |

| Sequence | shrunken log2 fold change |
| --- | --- |
| RRIRVRPPRLPRPRPRPIQPPRP | 0.0215 |
| RRIRYRPPRLPRPRPRPMAPPRP | 0.025 |
| RRIRIRPPRLPRPRPRPQHYPRP | -1.3 |
| RRIRERPPRLPRPRPRPQPTPRP | 0.234 |
| RRIRIRPPRLPRPRPRPLLGPRP | -0.175 |
| RRIRTRPPRLPRPRPRPHINPRP | -0.454 |
| RRIRNRPPRLPRPRPRPTGFPRP | -0.0139 |
| RRIRYRPPRLPRPRPRPLELPRP | 0.0293 |
| RRIRKRPPRLPRPRPRPAWKPRP | -0.116 |
| RRIRYRPPRLPRPRPRPEITPRP | -0.295 |
| RRIRMRPPRLPRPRPRPHCWPRP | -0.207 |
| RRIRDRPPRLPRPRPRPQHQPRP | -0.108 |
| RRIRLRPPRLPRPRPRPSKSPRP | -0.0582 |
| RRIRHRPPRLPRPRPRPLEIPRP | -0.0535 |
| RRIRIRPPRLPRPRPRPEWNPRP | -0.332 |
| RRIRWRPPRLPRPRPRPHPDPRP | 0.0175 |
| RRIRWRPPRLPRPRPRPGMFPRP | 0.281 |
| RRIRERPPRLPRPRPRPMQDPRP | 0.306 |
| RRIRPRPPRLPRPRPRPVFSPRP | -0.00413 |
| RRIRYRPPRLPRPRPRPRAIPRP | -0.36 |
| RRIRSRPPRLPRPRPRPQFFPRP | -0.158 |
| RRIRQRPPRLPRPRPRPMQIPRP | 0.0201 |
| RRIRERPPRLPRPRPRPWEDPRP | -0.0727 |
| RRIRRRPPRLPRPRPRPDNRPRP | 0.0484 |
| RRIRCRPPRLPRPRPRPCIYPRP | -0.253 |

| Sequence | shrunken log2 fold change |
| --- | --- |
| RRIRQRPPRLPRPRPRPDMKPRP | 0.26 |
| RRIRSRPPRLPRPRPRPPYLPRP | -0.45 |
| RRIRSRPPRLPRPRPRPKGQPRP | 0.0791 |
| RRIRIRPPRLPRPRPRPERLPRP | 0.0553 |
| RRIRQRPPRLPRPRPRPWLQPRP | 0.188 |
| RRIRDRPPRLPRPRPRPEFNPRP | 0.574 |
| RRIRCRPPRLPRPRPRPDMCPRP | -0.13 |
| RRIRKRPPRLPRPRPRPRWMPRP | 0.273 |
| RRIRHRPPRLPRPRPRPKAMPRP | -0.0705 |
| RRIRGRPPRLPRPRPRPIKTPRP | 0.143 |
| RRIRVRPPRLPRPRPRPPDIPRP | 0.248 |
| RRIRQRPPRLPRPRPRPIKKPRP | -0.1 |
| RRIRDRPPRLPRPRPRPVDNPRP | 0.0262 |
| RRIRPRPPRLPRPRPRPASGPRP | 0.194 |
| RRIRDRPPRLPRPRPRPKNIPRP | -0.465 |
| RRIRVRPPRLPRPRPRPHNWPRP | -0.0818 |
| RRIRDRPPRLPRPRPRPYTNPRP | -0.647 |
| RRIRGRPPRLPRPRPRPQYTPRP | -0.0367 |
| RRIRFRPPRLPRPRPRPEFWPRP | 0.264 |
| RRIRSRPPRLPRPRPRPCSMPRP | -0.441 |
| RRIRTRPPRLPRPRPRPYVDPRP | 0.0214 |
| RRIRIRPPRLPRPRPRPLHNPRP | -0.563 |
| RRIRDRPPRLPRPRPRPLFGPRP | 0.341 |
| RRIRSRPPRLPRPRPRPLFVPRP | -0.188 |
| RRIRFRPPRLPRPRPRPYTSPRP | -0.256 |
